Measured values as given in patent publication US20240067734A1 (Hoffmann-La Roche, published 2024).

T1: human NKG2D expressed on cells (human, UniProt P26718 1-216)
T1 construct: the cell type is named under assay; also called NKG2D on NK92 cells; HEK293T human NKG2D
T1 chain: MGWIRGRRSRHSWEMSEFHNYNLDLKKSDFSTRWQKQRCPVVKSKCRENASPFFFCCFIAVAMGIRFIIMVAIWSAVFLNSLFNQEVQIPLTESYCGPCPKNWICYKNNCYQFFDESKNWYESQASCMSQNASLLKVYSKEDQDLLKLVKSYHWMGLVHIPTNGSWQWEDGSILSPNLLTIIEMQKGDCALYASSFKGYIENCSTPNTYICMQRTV

T2: hu N(A2B2)A-avi-His (human)
T2 construct: Construct containing the A2 domain of human CEA, with avi and His tags; also called human CEA (A2 domain)
T2 chain: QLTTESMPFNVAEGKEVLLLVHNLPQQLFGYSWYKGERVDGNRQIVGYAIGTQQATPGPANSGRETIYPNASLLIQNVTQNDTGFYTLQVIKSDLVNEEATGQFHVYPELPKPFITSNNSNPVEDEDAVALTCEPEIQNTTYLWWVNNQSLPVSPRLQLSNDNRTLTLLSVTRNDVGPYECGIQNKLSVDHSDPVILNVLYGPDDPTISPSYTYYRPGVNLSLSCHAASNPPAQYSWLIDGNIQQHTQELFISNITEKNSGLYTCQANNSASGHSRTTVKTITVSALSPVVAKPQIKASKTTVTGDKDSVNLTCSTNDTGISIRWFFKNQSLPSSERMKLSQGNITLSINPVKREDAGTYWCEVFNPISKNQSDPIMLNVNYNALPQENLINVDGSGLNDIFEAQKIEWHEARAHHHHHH

T3: his avi huNKG2D ECD (human, biotinylated at the avi-tag (in the ELISA))
T3 construct: Human NKG2D ECD with N-terminal H6-avi tags, forms non-covalent dimers; also called recombinant human NKG2D
T3 chain: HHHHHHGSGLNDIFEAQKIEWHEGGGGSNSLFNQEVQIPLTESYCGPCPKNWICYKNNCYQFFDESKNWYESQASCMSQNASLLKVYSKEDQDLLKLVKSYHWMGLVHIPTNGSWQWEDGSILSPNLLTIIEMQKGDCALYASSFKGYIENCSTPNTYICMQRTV


Experiments:
[1] = target: T1, human NKG2D expressed on cells; assay: flow cytometry; NK92 cells
hu N(A2B2)A-avi-His = target: T2, hu N(A2B2)A-avi-His; assay: SPR Biacore T200; antigen captured via anti-His, bispecific analyte
Experimental: (§1) On a CM5 chip, an anti-penta-His capture antibody (Qiagen Penta-His Antibody, BSA-free; #34660) was immobilized by standard amine coupling on flow cells 2 and 3 at approximately 12′000 RU. […] Regeneration at the level of the anti-H6 tag capture antibody was achieved by 2 pulses of 10 mM glycine/HCl pH 2.0 for 60 s. Data were double-referenced against the unimmobilized flow cell 1 and a zero concentration of the analyte. The sensorgrams of the analytes were fitted to a simple 1:1 Langmuir interaction model.

his avi huNKG2D ECD = target: T3, his avi huNKG2D ECD; assay: as above
Experimental: as §1

Row | EC50 [1] | Kd (hu N(A2B2)A-avi-His) | Kd (his avi huNKG2D ECD) | Binder
1 | 8.47 nM | 3.34 nM | 10.5 nM | NKG2D×CEA bispecific antibody in M format, P1AE4972 (395 C50S, non-humanized) / huA5B7 (bispecific antibody, V domains shown, also called non-humanized comparator) VH 1: QEQLEQSGGGLVTPGGSLKLCCTASGFDFNTFWMTWVRQAPGKGLEWIGSIHGGSGSRDYASWVNGRFTLSRDIDQSTACLQVNSLTAADTAMYYCARPGYRSWSKTFDLWGQGTMVTVSS VL 1: DIQMTQSPSSLSASVGDRVTITCRASQDISGALNWYQQKPGKAPNLLIYAASSLQSGVPSRFSGSGSGTDYTLTISSLQPEDFATYYCQQANSFPLTFGGGTKVEIK VH 2: EVQLLESGGGLVQPGGSLRLSCAASGFTFTDYYMNWVRQAPGKGLEWLGFIGNKANAYTTEYSASVKGRFTISRDKSKNTLYLQMNSLRAEDTATYYCTRDRGLRFYFDYWGQGTTVTVSS VL 2: EIVLTQSPATLSLSPGERATLSCRASSSVTYIHWYQQKPGQAPRSWIYATSNLASGIPARFSGSGSGTDFTLTISSLEPEDFAVYYCQHWSSKPPTFGQGTKLEIK
2 | 19.6 nM | 3.77 nM | 22.9 nM | NKG2D×CEA bispecific antibody in M format, P1AE4977 / huA5B7 (bispecific antibody, V domains shown) VH 1: EVQLLESGGGLVQPGGSLRLSCAASGFDFNTFWMTWVRQAPGKGLEWVGSIHGGSGSRDYADSVKGRFTISRDIDQSTAYLQMNSLRAEDTAVYYCARPGYRSWSKTFDLWGQGTTVTVSS VL 1: DIQMTQSPSSLSASVGDRVTITCRASQDISGALNWYQQKPGKAPNLLIYAASSLQSGVPSRFSGSGSGTDYTLTISSLQPEDFATYYCQQANSFPLTFGGGTKVEIK VH 2: EVQLLESGGGLVQPGGSLRLSCAASGFTFTDYYMNWVRQAPGKGLEWLGFIGNKANAYTTEYSASVKGRFTISRDKSKNTLYLQMNSLRAEDTATYYCTRDRGLRFYFDYWGQGTTVTVSS VL 2: EIVLTQSPATLSLSPGERATLSCRASSSVTYIHWYQQKPGQAPRSWIYATSNLASGIPARFSGSGSGTDFTLTISSLEPEDFAVYYCQHWSSKPPTFGQGTKLEIK
3 | 17.6 nM | 2.55 nM | 14.5 nM | NKG2D×CEA bispecific antibody in M format, P1AE4973 / huA5B7 (bispecific antibody, V domains shown) VH 1: EVQLLESGGGLVQPGGSLRLSCAASGFDFNTFWMTWVRQAPGKGLEWVGSIHGGSGSRDYADSVKGRFTISRDNSKNTLYLQMNSLRAEDTAVYYCARPGYRSWSKTFDLWGQGTTVTVSS VL 1: DIQMTQSPSSLSASVGDRVTITCRASQDISGALNWYQQKPGKAPNLLIYAASSLQSGVPSRFSGSGSGTDYTLTISSLQPEDFATYYCQQANSFPLTFGGGTKVEIK VH 2: EVQLLESGGGLVQPGGSLRLSCAASGFTFTDYYMNWVRQAPGKGLEWLGFIGNKANAYTTEYSASVKGRFTISRDKSKNTLYLQMNSLRAEDTATYYCTRDRGLRFYFDYWGQGTTVTVSS VL 2: EIVLTQSPATLSLSPGERATLSCRASSSVTYIHWYQQKPGQAPRSWIYATSNLASGIPARFSGSGSGTDFTLTISSLEPEDFAVYYCQHWSSKPPTFGQGTKLEIK
4 | 14.9 nM | 3.66 nM | 18.6 nM | NKG2D×CEA bispecific antibody in M format, P1AE4975 / huA5B7 (bispecific antibody, V domains shown) VH 1: EVQLLESGGGLVQPGGSLRLSCAASGFDFNTFWMTWVRQAPGKGLEWVGSIHGGSGSRDYADSVKGRFTISRDNSKNTAYLQMNSLRAEDTAVYYCARPGYRSWSKTFDLWGQGTTVTVSS VL 1: DIQMTQSPSSLSASVGDRVTITCRASQDISGALNWYQQKPGKAPNLLIYAASSLQSGVPSRFSGSGSGTDYTLTISSLQPEDFATYYCQQANSFPLTFGGGTKVEIK VH 2: EVQLLESGGGLVQPGGSLRLSCAASGFTFTDYYMNWVRQAPGKGLEWLGFIGNKANAYTTEYSASVKGRFTISRDKSKNTLYLQMNSLRAEDTATYYCTRDRGLRFYFDYWGQGTTVTVSS VL 2: EIVLTQSPATLSLSPGERATLSCRASSSVTYIHWYQQKPGQAPRSWIYATSNLASGIPARFSGSGSGTDFTLTISSLEPEDFAVYYCQHWSSKPPTFGQGTKLEIK
